{
  "source": "paper PMC8764033",
  "about": "“Single-molecule analysis of specificity and multivalency in binding of short linear substrate motifs to the APC/C” (Nature Communications, 2022)",
  "molecules": {"B1": {"name": "Hsl1^Halo KEN & D: Hsl1 fragment (amino acids 667–872) with C-terminal HaloTag, JF549-labeled (protein)", "chain": "QNSASKRSLYSLQSISKRSLNLNDLLVFDDPLPSKKPASENVNKSEPHSLESDSDFEILCDQILFGNALDRILEEEEDNEKERDTQRQRQNDTKSSADTFTISGVSTNKENEGPEYPTKIEKNQFNMSYKPSENMSGLSSFPIFEKENTLSSSYLEEQKPKRAALSDITNSFNKMNKQEGMRIEKKIQREQLQKKNDRPSPLKPIQ", "modifications": "JF549 or JF646 dye covalently bound to the HaloTag; left off: HaloTag, C-terminal, kept | TAP, C-terminal, cleaved", "notes": "Hsl1 fragment (amino acids 667–872) with C-terminal HaloTag, JF549-labeled"}},
  "biological_target": "T1, APC/C^Cdh1 (Saccharomyces cerevisiae, UniProt P53068+P53197)",
  "T1 construct": "APC/C was purified from yeast cells; made in house; host or cells: APC/C from S. cerevisiae W303 strain NHY13 (Cdc16-TAP, Apc1-GFP, cdh1 deleted); Cdh1 from Sf9 (baculovirus)",
  "T1 sequence (P53068 whole entry, looked up)": "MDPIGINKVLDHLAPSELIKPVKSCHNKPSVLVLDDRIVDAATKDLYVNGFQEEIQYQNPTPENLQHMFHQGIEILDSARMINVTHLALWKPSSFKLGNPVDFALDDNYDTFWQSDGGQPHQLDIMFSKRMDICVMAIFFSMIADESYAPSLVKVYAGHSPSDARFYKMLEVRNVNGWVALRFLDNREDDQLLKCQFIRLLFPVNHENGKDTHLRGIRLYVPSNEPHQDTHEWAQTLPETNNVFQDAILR",
  "T1 sequence (P53197 whole entry, looked up)": "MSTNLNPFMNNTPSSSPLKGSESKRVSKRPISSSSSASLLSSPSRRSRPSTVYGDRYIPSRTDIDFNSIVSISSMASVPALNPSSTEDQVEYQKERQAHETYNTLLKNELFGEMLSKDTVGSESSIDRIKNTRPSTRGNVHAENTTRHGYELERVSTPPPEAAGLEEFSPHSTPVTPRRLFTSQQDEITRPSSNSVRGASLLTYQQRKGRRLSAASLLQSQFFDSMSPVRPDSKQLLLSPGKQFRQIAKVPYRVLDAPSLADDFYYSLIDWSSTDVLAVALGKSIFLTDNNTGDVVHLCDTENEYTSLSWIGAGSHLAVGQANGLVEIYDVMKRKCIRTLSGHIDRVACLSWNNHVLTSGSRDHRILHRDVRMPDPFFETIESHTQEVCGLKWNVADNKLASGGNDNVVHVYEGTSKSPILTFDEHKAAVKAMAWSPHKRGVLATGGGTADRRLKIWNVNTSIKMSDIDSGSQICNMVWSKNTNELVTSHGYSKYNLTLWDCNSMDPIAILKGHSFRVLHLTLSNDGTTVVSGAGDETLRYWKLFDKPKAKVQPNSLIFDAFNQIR",
  "assay_type": "binding",
  "settings": "for mean dwell time: representative of two independent experiments, ± SE, ligand ≤1 nM, buffer C + BSA",
  "protocol": "Yeast strains were derivatives of W303 and are listed in Supplementary Table 2. For APC/C purification, we used a strain carrying Cdc16-TAP and lacking Cdh1 (DOM1126); in most experiments, the strain also carried Apc1-GFP (NHY13). Yeast were grown in YPD media to OD600 = 0.8, collected and flash-frozen. Cells were lysed by bead beating in lysis buffer A (50 mM HEPES pH 7.5, 150 mM KCl, 10% glycerol, 0.2% Triton X-100, 63 µM B-glycerophosphate, 48 µM sodium fluoride, 1 µg ml^−1 pepstatin A, 1 µg ml^−1 leupeptin, 1 µg ml^−1 aprotinin, 1 mM PMSF, 1 mM DTT, 0.5 mM EDTA) and APC/C was purified using magnetic IgG beads. The beads were washed using wash buffer A (20 mM HEPES pH 7.5, 150 mM KCl, 10% Glycerol, 0.05% Triton X-100). After incubation with purified Cdh1 or Cdc20, the APC/C was cleaved off the beads with TEV protease in wash buffer A with 0.05% Tween-20 (for single-molecule studies) or 0.05% Triton X-100 (for ensemble assays such as ubiquitylation) and used immediately.\nFor all SMOR experiments, 24 × 50 mm high precision glass coverslips (Bioscience Tools) and drilled microscope slides were passivated with a combination of PEG and PEG-biotin (coverslips) or PEG only (slides) following a previously published protocol for SiMPull[31]. Reaction chambers (~20 µl) were created using double-sided tape and epoxy. Protein was immobilized on the surface with 0.2 mg ml^−1 NeutrAvidin in buffer C (20 mM HEPES pH 7.5, 150 mM KCl, 10% glycerol, 0.05% Tween-20, 1 mM DTT). Excess NeutrAvidin was washed away and incubated with either biotin-conjugated mouse monoclonal anti-Strep-Tag II antibody (LSBio, Cat. No. LS-C203632-100) or biotin-conjugated rabbit polyclonal anti-GFP antibody (Rockland, Cat. No. 600-406-215) diluted in buffer C + BSA (0.1 mg ml^−1; Molecular Biology Grade Bovine Serum Albumin). Activator WD40 and activated APC/C (typically 50 µl containing about 65 ng APC/C, of which only a small fraction is immobilized on the glass) were immobilized using anti-Strep-Tag II, while APC/C alone was immobilized with anti-GFP. SMOR results were similar when performed in the buffer (wash buffer B) used in polarization anisotropy.\nTo capture dynamic protein–protein interactions, dye-labeled substrate diluted in buffer C + BSA was added to the chamber containing immobilized proteins. Interactions were imaged by TIRF microscopy as described below. For optimal signal-to-noise ratio, peptide concentration was no greater than 1 nM. Protein substrates included Hsl1 aa 667–872 and a C-terminal HaloTag followed by a TAP tag, and were produced by translation in rabbit reticulocyte lysates using TnT Quick Coupled Transcription/Translation System (Promega) (see Supplementary Table 5 for plasmids). Protein was purified with magnetic IgG beads and labeled on the bead with JF549 or JF646 dye so that unbound dye could be washed away. Purified dye-labeled protein was then cleaved from the beads using TEV protease. Before adding substrate to the reaction chamber, oxygen scavenging reagents were added (10 nM protocatechuate-3,4-dioxygenase, 2.5 mM protocatechuic acid, and 1 mM Trolox)[41]. A detailed description of the SMOR analysis pipeline is found in Supplementary Note 1.\nMicroscopy was performed with a Nikon Eclipse TE2000-E with Perfect Focus with a 100 × 1.49na oil, Apo TIRF DIC N2, 0.13-0.2, WD0.12 objective. Movies were recorded using the Andor iXon DU-897E-CSO. For visualizing GFP-tagged protein, a 491 nm laser was used with an ET525/50 (Chroma) filter for emission. For visualizing JF549-labeled substrate, a 561 nm laser was used with an ET595/50 (Chroma) filter for emission. For visualizing all Cy5-labeled peptides and JF646-labeled substrates, a 640 nm laser was used with an ET685/70 filter (Chroma) for emission. Initially, for each substrate tested, we acquired movies at multiple intervals to deduce the optimal interval to decrease bleaching. µManager version 2.0 was used to control the microscope and record time-lapse movies.",
  "note": "“And” between values parts separate entries of the source, which are not always exact repeats. Equal entries are not always repeated. Where two headings read alike, the source gives them in different places.",
  "data": [
    {"molecule": "B1", "values": [
      {"measurement": "Dwell Time", "result": 300, "unit": "s"},
      {"measurement": "fold increase in affinity/dwell time, APC/C^Cdh1 vs Cdh1 alone", "result": 6, "unit": "fold"},
      {"measurement": "Dwell Time", "setting": "Supplementary Table 1, replicate 1 (movie listed first)", "result": "321.161 ± 14.186", "unit": "s"},
      {"measurement": "Dwell Time", "setting": "Supplementary Table 1, replicate 2 (movie listed second)", "result": "268.262 ± 10.979", "unit": "s"},
      {"measurement": "mean dwell time", "result": "321 ± 14 s and 321 s"},
      {"measurement": "mean dwell time", "setting": "listed as Hsl1", "result": "over 300 s"},
      {"measurement": "mean dwell time", "setting": "listed as Hsl1 fragment", "result": "321 ± 14", "unit": "s"}
    ]}
  ]
}
